This is an account of results in US20170260242, “METHOD FOR MODIFYING RNA BINDING PROTIEN USING PPR MOTIF” (Kyushu University, National University Corporation, published 2017).

For data set [1], the target named is T1, HCF152/5&6 (Arabidopsis thaliana, UniProt Q9SF38 SEQ:124-197).
T1 chain: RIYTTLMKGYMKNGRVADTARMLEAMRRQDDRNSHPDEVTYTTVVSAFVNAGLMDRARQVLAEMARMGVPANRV
In words: EMSA; A>G>U; 200 nM protein. Conditions: tags: N-terminal thioredoxin, C-terminal His; label: 5'-32P. On the technique in general: In EMSA bound probe runs differently from free probe, usually more slowly.
Method: (§1) The binding specificity of the mini PPR proteins were analyzed by gel shift method. […] Then, to the reaction solution was added 4 μl of 80% glycerol solution, and 10 μL was developed in 10% nondenaturing polyacrylamide gel comprising 1×TBE (89 mM Tris-HCl, 89 mM Boric acid, and 2 mM EDTA) and the gel was dried after electrophoresis. The radioactivity of RNA in the gel was measured with Bioimaging Analyzer BAS2000 (From Fujifilm).

The target in a further data set is T2, HCF152/9&10 (Arabidopsis thaliana, UniProt Q9SF38 SEQ:124-194).
T2 sequence: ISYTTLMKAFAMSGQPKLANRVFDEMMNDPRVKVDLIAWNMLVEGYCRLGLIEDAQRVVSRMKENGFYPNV
In words: EMSA; A>G>U; 200 nM protein. Conditions: tags: N-terminal thioredoxin, C-terminal His; label: 5'-32P.

A further data set deals with T3, HCF152/2&3 (Arabidopsis thaliana, UniProt Q9SF38 SEQ:124-194).
T3 sequence: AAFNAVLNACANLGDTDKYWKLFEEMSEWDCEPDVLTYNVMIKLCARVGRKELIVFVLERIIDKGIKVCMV
In words: EMSA; A>G>U; 200 nM protein. Conditions: tags: N-terminal thioredoxin, C-terminal His; label: 5'-32P.

In data set [2] the target is T4, CAR4/6 (CRR4 PPR motif 6) (Arabidopsis thaliana).
T4 chain: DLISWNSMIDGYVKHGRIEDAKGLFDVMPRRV
In words: EMSA; preference for A. Conditions: tags: N-terminal thioredoxin, C-terminal His; label: 5'-32P.

A further data set addresses T5, CAR4/6 (I1L) (Arabidopsis thaliana, UniProt O22137 SEQ:124-155).
T5 chain: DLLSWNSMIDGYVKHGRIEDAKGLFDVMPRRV
In words: EMSA; did not bind A. Conditions: tags: N-terminal thioredoxin, C-terminal His; label: 5'-32P.

For a further data set, the target named is T6, HCF152/7&8 (Arabidopsis thaliana, UniProt Q9SF38 SEQ:124-196).
T6 chain: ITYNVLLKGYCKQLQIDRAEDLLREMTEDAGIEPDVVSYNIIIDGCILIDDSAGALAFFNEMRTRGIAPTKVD
In words: EMSA; A>U>G; 200 nM protein. Conditions: tags: N-terminal thioredoxin, C-terminal His; label: 5'-32P.

For another data set, the target named is T7, 5&6/5-K12M,6-N12R (Arabidopsis thaliana, UniProt Q9SF38 SEQ:124-197).
T7 chain: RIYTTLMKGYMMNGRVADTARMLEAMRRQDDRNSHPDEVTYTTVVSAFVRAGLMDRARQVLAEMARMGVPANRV
In words: EMSA; partly restored vs 6-N12R. Conditions: tags: N-terminal thioredoxin, C-terminal His; label: 32P-UTP internal.

The next data set deals with T8, 5&6/5-K12N,6-N12K (Arabidopsis thaliana, UniProt Q9SF38 SEQ:124-197).
T8 chain: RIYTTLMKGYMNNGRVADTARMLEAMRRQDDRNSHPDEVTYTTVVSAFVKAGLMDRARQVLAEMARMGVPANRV
In words: EMSA; affinity improved vs 5-K12N; value in figure. Conditions: tags: N-terminal thioredoxin, C-terminal His; label: 32P-UTP internal.

A further data set has as its target T9, 5&6/5-G14A (Arabidopsis thaliana, UniProt Q9SF38 SEQ:124-197).
T9 chain: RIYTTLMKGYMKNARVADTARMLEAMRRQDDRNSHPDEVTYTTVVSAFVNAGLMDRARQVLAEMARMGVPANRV
In words: EMSA; position 14 not among those with 10-fold or more reduction (position-level). Conditions: tags: N-terminal thioredoxin, C-terminal His; label: 32P-UTP internal.

A further data set has as its target T10, 5&6/5-G14D (Arabidopsis thaliana, UniProt Q9SF38 SEQ:124-197).
T10 chain: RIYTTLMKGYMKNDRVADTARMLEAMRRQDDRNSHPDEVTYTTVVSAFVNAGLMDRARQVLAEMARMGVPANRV
Described as above. Conditions: tags: N-terminal thioredoxin, C-terminal His; label: 32P-UTP internal.

Another data set deals with T11, 8&9/8-D8K,9-K8D (Arabidopsis thaliana, UniProt Q9SF38 SEQ:124-194).
T11 chain: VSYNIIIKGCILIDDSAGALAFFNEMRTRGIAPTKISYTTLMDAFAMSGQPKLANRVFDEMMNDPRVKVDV
In words: EMSA; no significant difference vs 8&9. Conditions: tags: N-terminal thioredoxin, C-terminal His; label: 32P-UTP internal.

For another data set, the target named is T12, 8&9/9-K8D (Arabidopsis thaliana, UniProt Q9SF38 SEQ:124-194).
T12 chain: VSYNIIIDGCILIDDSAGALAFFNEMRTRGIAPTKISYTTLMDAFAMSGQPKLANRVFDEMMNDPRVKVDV
In words: EMSA; no significant difference vs 8&9. Conditions: tags: N-terminal thioredoxin, C-terminal His; label: 32P-UTP internal.

For another data set, the target named is T13, 5&6/5-T5I (Arabidopsis thaliana, UniProt Q9SF38 SEQ:123-204).
T13 chain: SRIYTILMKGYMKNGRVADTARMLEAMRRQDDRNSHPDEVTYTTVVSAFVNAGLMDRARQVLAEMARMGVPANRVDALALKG
In words: EMSA; position 5 not among those with 10-fold or more reduction (position-level). Conditions: tags: N-terminal thioredoxin, C-terminal His; label: 32P-UTP internal.

The next data set has as its target T14, 5&6/5-K12H (Arabidopsis thaliana, UniProt Q9SF38 SEQ:124-197).
T14 chain: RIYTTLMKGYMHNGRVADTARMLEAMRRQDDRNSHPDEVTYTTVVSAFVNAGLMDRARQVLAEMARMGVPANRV
In words: EMSA; Kd almost equivalent to wild type 5&6; value in figure. Conditions: tags: N-terminal thioredoxin, C-terminal His; label: 32P-UTP internal.

In a further data set the target is T15, 5&6/5-M11A (Arabidopsis thaliana, UniProt Q9SF38 SEQ:123-204).
T15 chain: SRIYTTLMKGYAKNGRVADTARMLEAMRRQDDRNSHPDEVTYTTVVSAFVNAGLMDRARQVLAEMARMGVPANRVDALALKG
In words: EMSA; position 11 not among those with 10-fold or more reduction (position-level). Conditions: tags: N-terminal thioredoxin, C-terminal His; label: 32P-UTP internal.

Another data set deals with T16, 5&6/5-M11I (Arabidopsis thaliana, UniProt Q9SF38 SEQ:123-204).
T16 chain: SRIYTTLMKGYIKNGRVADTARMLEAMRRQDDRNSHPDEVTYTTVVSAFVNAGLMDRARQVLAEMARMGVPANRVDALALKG
Described as above. Conditions: tags: N-terminal thioredoxin, C-terminal His; label: 32P-UTP internal.

Another data set addresses T17, 8&9/8-D8K (Arabidopsis thaliana, UniProt Q9SF38 SEQ:124-194).
T17 chain: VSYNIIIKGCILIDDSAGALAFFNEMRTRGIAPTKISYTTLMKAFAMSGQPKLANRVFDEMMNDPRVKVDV
In words: EMSA; no change vs 8&9. Conditions: tags: N-terminal thioredoxin, C-terminal His; label: 32P-UTP internal.

The target of data set [3] is T1, HCF152/5&6. In words: EMSA; 6 mM MgCl2, 30 mM KCl, pH 7.9, 25 C. Conditions: tags: N-terminal thioredoxin, C-terminal His; label: 32P-UTP internal.
Method: (§2) The RNA binding activity of the mini PPR protein was analyzed by gel shift method. […] Then, to the reaction solution was added 4 microliters of 80% glycerol solution, and 10 μL was developed in 10% nondenaturing polyacrylamide gel comprising 1×TBE (89 mM Tris-HCl, 89 mM Boric acid, and 2 mM EDTA) and the gel was dried after electrophoresis. The radioactivity of RNA in the gel was measured with Bioimaging Analyzer BAS2000 (From Fujifilm). […] This is because the molecular weight of the 32P-labeled RNA/protein conjugate is larger than the molecular weight of the 32P-labeled RNA alone and thus mobility in electrophoresis had become slower. The binding between protein and RNA was quantified based on the results in FIGS. 1C-H (FIG. 1B), and evaluated by determining the disassociation constant (Kd) (FIG. 2C).
A further data set addresses T18, 6&7/6-S8K (Arabidopsis thaliana, UniProt Q9SF38 SEQ:124-195).
T18 chain: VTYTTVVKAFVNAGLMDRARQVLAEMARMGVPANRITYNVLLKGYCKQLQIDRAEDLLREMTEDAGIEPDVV
In words: EMSA; affinity improved vs 6&7; value in figure. Conditions: tags: N-terminal thioredoxin, C-terminal His; label: 32P-UTP internal.

The next data set deals with T19, 6&7/6-V1R (Arabidopsis thaliana, UniProt Q9SF38 SEQ:124-195).
T19 chain: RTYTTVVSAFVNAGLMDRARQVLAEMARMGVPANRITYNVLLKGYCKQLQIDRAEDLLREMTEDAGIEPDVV
In words: EMSA; affinity improved vs 6&7; value in figure. Conditions: tags: N-terminal thioredoxin, C-terminal His; label: 32P-UTP internal.

Another data set concerns the target T20, 6&7/7-N4T (Arabidopsis thaliana, UniProt Q9SF38 SEQ:124-195).
T20 chain: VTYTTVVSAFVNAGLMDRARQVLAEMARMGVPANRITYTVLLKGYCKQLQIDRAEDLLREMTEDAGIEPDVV
In words: EMSA; affinity improved vs 6&7; value in figure. Conditions: tags: N-terminal thioredoxin, C-terminal His; label: 32P-UTP internal.

The target of another data set is T21, HCF152/8&9 (Arabidopsis thaliana, UniProt Q9SF38 SEQ:124-195).
T21 chain: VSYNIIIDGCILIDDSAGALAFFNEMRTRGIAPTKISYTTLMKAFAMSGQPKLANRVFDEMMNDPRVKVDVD
In words: EMSA; 6 mM MgCl2, 30 mM KCl, pH 7.9, 25 C. Conditions: tags: N-terminal thioredoxin, C-terminal His; label: 32P-UTP internal.

For the next data set, the target named is T22, HCF152/10&11 (Arabidopsis thaliana, UniProt Q9SF38 SEQ:124-195).
T22 sequence: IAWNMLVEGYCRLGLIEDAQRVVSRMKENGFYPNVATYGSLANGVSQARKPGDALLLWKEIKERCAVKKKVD
In words: EMSA; 6 mM MgCl2, 30 mM KCl, pH 7.9, 25 C. Conditions: tags: N-terminal thioredoxin, C-terminal His; label: 32P-UTP internal.

The target of the next data set is T23, 5&6/5-N13A (Arabidopsis thaliana, UniProt Q9SF38 SEQ:123-204).
T23 chain: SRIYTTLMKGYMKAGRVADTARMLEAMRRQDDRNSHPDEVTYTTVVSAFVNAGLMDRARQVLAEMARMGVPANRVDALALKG
In words: EMSA; position 13 not among those with 10-fold or more reduction (position-level). Conditions: tags: N-terminal thioredoxin, C-terminal His; label: 32P-UTP internal.

For the next data set, the target named is T24, 5&6/5-N13L (Arabidopsis thaliana, UniProt Q9SF38 SEQ:123-204).
T24 chain: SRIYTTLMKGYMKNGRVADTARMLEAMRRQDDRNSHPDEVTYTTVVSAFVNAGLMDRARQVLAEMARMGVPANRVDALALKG
The description is as above. Conditions: tags: N-terminal thioredoxin, C-terminal His; label: 32P-UTP internal.

Method for 5&6/5-G14A: as §2
(§3) Using HCF152/5&6 as the model, mini PPR proteins having one amino acid substitution introduced centering on the aforementioned positions (1st, 2nd, 4th, 5th, 8th, 9th, 11th, and 12th) were prepared. The amino acid substitutions were based on substitution to alanine. […] Affinity with RNA was analyzed by the same gel shift method as above (FIG. 3), and the affinity with the RNA was evaluated with Kd (FIG. 4B).
Method for 5&6/5-G14D: as §2, §3
Method for 5&6/5-K12H: as §2
Method for 5&6/5-K12M,6-N12R: (§4) The RNA binding activity of the mini PPR protein was analyzed by gel shift method. […] Then, to the reaction solution was added 4 microliters of 80% glycerol solution, and 10 μL was developed in 10% nondenaturing polyacrylamide gel comprising 1×TBE (89 mM Tris-HCl, 89 mM Boric acid, and 2 mM EDTA) and the gel was dried after electrophoresis. The radioactivity of RNA in the gel was measured with Bioimaging Analyzer BAS2000 (From Fujifilm). […] The binding between protein and RNA was quantified based on the results in FIGS. 1C-H (FIG. 1B), and evaluated by determining the disassociation constant (Kd) (FIG. 2C).
Method for 5&6/5-K12N,6-N12K: as §4
Method for 5&6/5-M11A: as §2, §3
Method for 5&6/5-M11I: as §2, §3
Method for 5&6/5-N13A: as §2, §3
Method for 5&6/5-N13L: as §2, §3
Method for 5&6/5-T5I: as §2, §3
Method for 6&7/6-S8K: as §4
Method for 6&7/6-V1R: as §4
Method for 6&7/7-N4T: as §4
Method for 8&9/8-D8K,9-K8D: as §4
Method for 8&9/9-K8D: as §4
Method for HCF152/10&11: as §4
Method for HCF152/2&3: as §1
Method for HCF152/7&8: as §1
Method for HCF152/8&9: as §4
Method for HCF152/9&10: as §1

Turning to AUCGAAAAAAAAAAAAAAAAAAAAAAAAA (ssRNA) [LA25], the binding result with HCF152/5&6 [1] is “binds”; in the data set with HCF152/9&10, “binds”; with HCF152/2&3 it was “binds”; in [2] it was “binds”; with CAR4/6 (I1L) it was “no binding”; with HCF152/7&8, “binds”.

B1: BD120 (petB) (ssRNA)
RNA: CUGGAUGGAAUUUCAGUGAAUUAGACUGAGAAGAAUCUUGAAGUUCUAGCUUUUAGCUCGAUACAAAAAAGUAAAGUAUGCAGGUCUAACAAUUUUAGCCUAUUCUCCUUUGGUAGUUCG
As a reminder, the Kd is the free concentration of one partner at which half of the binding sites on the other are occupied at equilibrium, for simple one-to-one binding. The low end stands for higher affinity, the high end for lower affinity. On to B1, for which the Kd with 5&6/5-K12M,6-N12R came to 473 nM; in the data set with HCF152/5&6 [3], 21.1 nM; in the data set with HCF152/8&9, 5.3 nM; with HCF152/10&11, 5240 nM. Further, the binding result with 5&6/5-K12N,6-N12K, with 5&6/5-G14A, in the data set with 5&6/5-G14D, with 8&9/8-D8K,9-K8D, in the data set with 8&9/9-K8D and with 5&6/5-T5I was “binds” each time. Also, the binding result with 5&6/5-K12H, with 5&6/5-M11A, with 5&6/5-M11I, with 8&9/8-D8K, with 6&7/6-S8K and with 6&7/6-V1R was “binds” in each case. Further, the binding result with 6&7/7-N4T, with 5&6/5-N13A and in the data set with 5&6/5-N13L was “binds” in each case.
